We go through two molecules from paper PMC11578312, “Proximity‐Unlocked Luminescence by Sequential Enzymatic Reactions from Antibody and Antibody/Aptamer (PULSERAA): A Platform for Detection and Visualization of Virus‐Containing Spots”.

Data set [1] deals with T1, myoglobin (Mb) (UniProt P02144 2-154).
T1 sequence: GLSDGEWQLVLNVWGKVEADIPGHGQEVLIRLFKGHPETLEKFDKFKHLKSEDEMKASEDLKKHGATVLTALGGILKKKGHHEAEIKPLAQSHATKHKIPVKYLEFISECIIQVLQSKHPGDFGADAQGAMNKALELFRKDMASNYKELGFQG
The data set can be described thus: dot blot (aptamer blotting); folded in 10 mM K acetate pH 5.0; dot blot: 10 mM sodium phosphate pH 7.0, 10 mM KCl, 0.05% Tween-20, 100 nM oligonucleotide, 25 C, 1 h (block 2% BSA); ELONA: 500 nM aptamer, 25 C, 1 h, TBS-T wash. The note with it: protein: commercial; label: 3'-biotinylated oligonucleotide mixed; mixed or hybrid (3+1) G4 at pH 5.0.

Data set [2] has as its target T1, myoglobin (Mb). Briefly: dot blot (aptamer blotting); folded in 10 mM K acetate pH 5.0; higher signal than N2 at low Mb; dot blot: 10 mM sodium phosphate pH 7.0, 10 mM KCl, 0.05% Tween-20, 100 nM oligonucleotide, 25 C, 1 h (block 2% BSA); ELONA: 500 nM aptamer, 25 C, 1 h, TBS-T wash. The note with it: protein: commercial; label: 3'-biotinylated oligonucleotide mixed; parallel G4 at pH 7.0 with 10 mM Na+ and 10 mM K+.

On to GGGGCTGCTCGGGATTGCGGATATGGTTTGGGCGGGTTGGGCTGGG (structured_DNA) [RBD-46–PEA3-01], for which, in the data set with myoglobin (Mb) [1], the binding result is “binds”.
Consider GGGCGGGTTGGGCTGGGTTTGGGGCTGCTCGGGATTGCGGATATGG (structured_DNA) [PEA3-01–RBD-46], for which the binding result with myoglobin (Mb) [2] is “binds”.
